{
  "source": "paper PMC8837141",
  "about": "“Structural and Functional Differences between Homologous Bacterial Ribonucleases” (International Journal of Molecular Sciences, 2022)",
  "key": {"[1]": {"molecular_target": "balifase (Bacillus licheniformis)", "experiment": "SEC; size-exclusion chromatography of the purified RNases; molecular weights from the elution profile of marker proteins; column and buffer not told"}, "[2]": {"molecular_target": "balnase (Bacillus altitudinis)", "experiment": "SEC; size-exclusion chromatography of the purified RNases; molecular weights from the elution profile of marker proteins; column and buffer not told"}, "[3]": {"molecular_target": "the molecule itself", "experiment": "SEC; size-exclusion chromatography of the purified RNases; molecular weights from the elution profile of marker proteins; column and buffer not told"}, "[4]": {"molecular_target": "the molecule itself", "experiment": "dynamic light scattering; Zetasizer Nano ZS; RNase diluted with ultrapure water, filtered, sonicated for 2 min; particle size by volume distribution; ten runs of 30 s"}},
  "data": [
    {"molecule": "balifase (enzyme)", "values": [
      {"measurement": "stoichiometry N", "setting": "[1]", "result": 2}
    ]},
    {"molecule": "balnase (enzyme)", "values": [
      {"measurement": "stoichiometry N", "setting": "[2]", "result": 2}
    ]},
    {"molecule": "barnase (enzyme, Bacillus amyloliquefaciens, UniProt P00648 48-157, looked up, barnase, guanyl-preferring ribonuclease of Bacillus amyloliquefaciens; also called RNase from B. amyloliquefaciens; source: homogeneous protein preparation, obtained using previously described three-step procedure [19,30]) AQVINTFDGVADYLQTYHKLPDNYITKSEAQALGWVASKGNLADVAPGKSIGGDIFSNREGKLPGKSGRTWREADINYTSGFRNSDRILYSSDWLIYKTTDHYQTFTKIR", "values": [
      {"measurement": "stoichiometry N", "setting": "[3]", "result": 2}
    ]},
    {"molecule": "binase (enzyme, Bacillus pumilus, UniProt P00649 54-162, looked up, binase, guanyl-preferring ribonuclease of Bacillus pumilus (~12 kDa), N1/T1/U2 family (IPR000026); also called RNase from B. pumilus; source: homogeneous protein preparation, obtained using previously described three-step procedure [19,30]) AVINTFDGVADYLIRYKRLPDNYITKSQASALGWVASKGNLAEVAPGKSIGGDVFSNREGRLPSASGRTWREADINYVSGFRNADRLVYSSDWLIYKTTDHYATFTRIR", "values": [
      {"measurement": "stoichiometry N", "setting": "[4]", "result": 2}
    ]}
  ]
}
